Series [1] concerns the target PGD2_new medial C420S (Arabidopsis thaliana) (UniProt Q9FWA3).
Series [2] deals with the molecule itself. The series is described as follows: semi-native SDS-PAGE with anti-His immunoblot; His-PGD2 variants from cleared E. coli BL21minus extracts, sample buffer without SDS and DTT and without boiling; monomer to dimer. Background: Immunoblotting shows a protein as a band on a membrane.

We go through 2 molecules from article PMC11103113, “Evidence for dual targeting control of Arabidopsis 6-phosphogluconate dehydrogenase isoforms by N-terminal phosphorylation” (Journal of Experimental Botany, 2024).

Positions count from the first letter of the chain named. Names may count otherwise.

One may read the stoichiometry N as a count of units in the complex or per binding partner.

B1: PGD2_new medial C420S (enzyme)
chain: MAVQPTRIGLAGLAVMGQNLALNIAEKGFPISVYNRTTSKVDETVERAKKEGNLPLYGFHDPESFVKSIQKPRVIIMLVKAGSPVDQTIKTLSAYLEKGDCIVDGGNEWYENTERREKAVAENGFLYLGMGVSGGEEGARNGPSMMPGGSYEAYKNIEDIVLKVAAQVRDSGPCVTYIGKGGSGNFVKMVHNGIEYGDMQLIAEAYDVLKSVGKLSNEELHSVFSDWNKGELESFLVEITADIFGIKDDKGDGHLVDKVLDKTGMKGTGKWTVQQAAELSVPAPTIESSLDARFLSGLKDERVQAAKVFKAGGFGDILTDQKVDKKQLVDDVRKALYASKICSYAQGMNLIRAKSIEKGWGLKLGELARIWKGGCIIRAIFLDRIKQAYDRNAELANLLVDPEFAKEIIERQSAWRRVVSLAINSGISTPGMSASLAYFDSYRRERLPANLVQAQRDYFGAHTYERTDVEGSFHTEWFKIARQSKI
As for B1, in series [1], the 6PGDH activity upon GFP-based pull-down from protoplasts, relative to the corresponding wild-type version (% of the corresponding wild-type version) is 80.

B2: His-PGD2 wild type (full-length protein) (enzyme, Arabidopsis thaliana, UniProt Q9FWA3 1-486, looked up)
chain: B1 chain with S420C
notes: Arabidopsis thaliana PGD2 (At3g02360), full-length protein, cDNA cloned in pET16b; Cloning analogous to Hölscher et al. (2016); Found as monomer and dimer on the semi-native gel; source: E. coli BL21minus (G6PDH-deficient), in cleared extract
B2: the “stoichiometry N” value in series [2] was 2.
